Data taken from US5780265.
pKi: −log10 of the molar value.

Columns and labels:
Human Factor XIa (human) [1] = biological target: Human Factor XIa (human) (UniProt P03951); assay: enzyme inhibition of FXIa, chromogenic substrate, fit to the tight-binding equation (apparent Ki*)
Human Factor XIa (human) [2] = biological target: Human Factor XIa (human) (UniProt P03951)
[3] = biological target: Human plasma kallikrein (human) (UniProt P03952)
Human Factor XIa (human) [4] = biological target: Human Factor XIa (human) (UniProt P03951); remark: listed apart in the source
[5] = biological target: tissue factor-Factor VIIa (human) (UniProt P13726)

APPI, Kunitz protease inhibitor domain of the Alzheimer's amyloid β-protein precursor
pKi (Human Factor XIa (human) [1]): 8.57 | fold prolongation of the clotting time of normal human plasma, APTT assay (Human Factor XIa (human) [2]): 2.8 fold | fraction of remaining proteolytic activity at 100 nM inhibitor (fraction of uninhibited rate) [3]: 0.81 | fraction of remaining proteolytic activity at 100 nM inhibitor (fraction of uninhibited rate) (Human Factor XIa (human) [4]): 0.03 | fraction of remaining proteolytic activity at 100 nM inhibitor (fraction of uninhibited rate) [5]: 0.6
